In US7442375B2, “Compositions of beta-defensin inducing agents” (Case Western Reserve University, priority 2002, dated 2008):

What was measured:
[1] = system: HIV-1 X4 B-HXB2; test: hBD-virion interaction: virions incubated with hBD, pelleted, washed, used to infect GHOST X4/R5 cells; assay type: cell-based
Method: (§1) (a) CXCR4 tropic HXB2 and CCR5 tropic 97ZA003 HIV-1 strains were incubated with 20 μg/ml hBD-1, -2, or -3 in 10 mM PB for 1 h. Virions were pelleted, washed extensively with PBS and used to infect GHOST X4/R5 cells. RT activity was measured 48 h post-infection. The final two columns represent an additional 20 μg/ml of hBD-2 or -3 during infection. (b) Immunoelectron microscopy analysis showing the interaction of hBD-2 and -3 with HIV-1 and with MT4 cell membrane. X4 HIV-1 HXB2 strain and MT4 cells were incubated with hBD-2 or -3 (20 μg/ml), 37° C., 1 h. Polyclonal anti-hBD-2 or -3 antibodies were added, followed by addition of secondary IgG conjugated with 10-nm gold particles. Arrows indicate hBD-2 and -3 localization to virions and cell membrane.
(§2) In order to verify a direct hBD-virion interaction, the X4 B-HXB2 and R5-C-97ZA003 HIV-1 strains was incubated with 20 μg/ml of each hBD in 10 mM PB for 1 h, followed by pelleting and extensive washing. Virions were then used to infect GHOST X4/R5 cells. […] To further define these interactions, MT4 cells, infected with the CXCR4 tropic B-HXB2, were incubated with hBD-2 or -3 in RPMI, followed by the addition of anti-hBD-2 or -3 antibodies and goat anti-rabbit IgG conjugated with 10-nm gold particles.

[2] = system: HIV-1 R5-C-97ZA003; test: as above; assay type: cell-based; conditions: 20 μg/ml in 10 mM PB 1 h; RT activity 48 h post-infection
Method: as §1, §2

[3] = molecular target: CXCR4 (Homo sapiens, UniProt P61073); test: Flow cytometric analysis of co-receptor surface expression on unstimulated PBMC; assay type: cell-based; set-up: endogenous in cells; host or cells: unstimulated peripheral blood mononuclear cells (PBMC); conditions: 30 μg/ml, 3 h, high salt medium without FBS
CXCR4, sequence (P61073 whole entry): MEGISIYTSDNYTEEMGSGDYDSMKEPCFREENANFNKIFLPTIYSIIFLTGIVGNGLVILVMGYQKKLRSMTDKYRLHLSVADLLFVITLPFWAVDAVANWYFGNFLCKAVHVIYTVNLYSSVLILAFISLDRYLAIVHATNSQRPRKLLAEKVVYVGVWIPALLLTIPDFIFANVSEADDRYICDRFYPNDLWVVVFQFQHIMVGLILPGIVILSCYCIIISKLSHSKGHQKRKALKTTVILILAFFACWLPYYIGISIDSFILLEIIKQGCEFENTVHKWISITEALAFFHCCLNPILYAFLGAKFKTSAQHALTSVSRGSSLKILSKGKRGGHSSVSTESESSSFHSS
Method: (§3) Unstimulated PBMC were treated for 3 hrs with hBD-1, -2, or -3 (30 μg/ml) in DMEM (high salt) in the absence of FBS. The CXCR4 natural ligand SDF-1AE (2 μg/ml) and the CCR5 antagonist PSC-RANTES (100 nM) were used as positive controls. CXCR4 and CCR5 surface expression was calculated using known ratios of QuantiBRITE-PE beads (Becton Dickenson) by flow cytometry. Results are the means of seven experiments±SD.
(§4) Unstimulated PBMC were treated with 30 μg/ml hBD-1, -2, or -3 in high salt medium (RPMI-1640) in the absence of FBS, 3 h. The CXCR4 natural ligand SDF-1α (R&D Systems, Minneapolis, Minn., USA) and the CCR5 antagonist PSC-RANTES were used as controls. Cells were incubated with peridinin chlorophyll protein-conjugated anti-human CD4 antibody, and either phycoerythrin (PE)-conjugated anti-human CXCR4 antibody, PE-conjugated anti-human CCR5 antibody, or PE-conjugated mouse immunoglobulin G2a (IgG2a), isotype standard (PharmMingen, San Diego, Calif., USA) [Salkowitz et al.]. Fluorescence intensity was reported as receptor density by quantitative flow cytometry (FACSCaliber; Becton Dickenson, San Jose, Calif., USA) [Iyer et al.]. Data were analyzed using CELLQuest software (Becton Dickenson).
(§5) Surface expression of CXCR4 was decreased by 51%±18% and 52%±20% (SD) respectively after incubation with 30 μg/ml of hBD-2 or hBD-3 (FIG. 5).

[4] = molecular target: CCR5 (Homo sapiens, UniProt P51681); test: as above; assay type: cell-based; set-up: endogenous in cells; host or cells: unstimulated peripheral blood mononuclear cells (PBMC); conditions: 30 μg/ml, 3 h, high salt medium without FBS
CCR5, sequence (P51681 whole entry): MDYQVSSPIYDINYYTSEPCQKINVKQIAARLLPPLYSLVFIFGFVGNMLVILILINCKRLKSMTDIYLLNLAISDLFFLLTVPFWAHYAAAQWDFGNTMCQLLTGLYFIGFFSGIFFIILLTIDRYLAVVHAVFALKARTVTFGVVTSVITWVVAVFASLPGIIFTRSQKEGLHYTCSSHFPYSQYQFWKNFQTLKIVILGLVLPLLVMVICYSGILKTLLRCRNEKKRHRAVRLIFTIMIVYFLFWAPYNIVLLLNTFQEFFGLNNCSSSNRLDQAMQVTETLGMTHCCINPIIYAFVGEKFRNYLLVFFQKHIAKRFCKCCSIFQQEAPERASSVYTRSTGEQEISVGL
Method: as §3, §4, §5

[5] = system: MT4 cellular membrane; test: Immunogold transmission electron microscopy; assay type: binding, human; conditions: 20 μg/ml, 37° C., 1 h; anti-hBD antibody and 10-nm gold IgG
Method: as §1
(§6) MT4 cells in RPMI, or X4 strain B-HXB2 viral particles in 10 mM phosphate buffer (PB), were incubated with 20 μg/ml hBD-2 and -3 at 37° C. for 1 h. Cells and virions were centrifuged (15 min, 1200 rpm for cells; 30 min, 35 000 3 g for virus) and washed twice with PBS to remove unbound hBD. Cells and virions were mixed and fixed with 4% paraformaldehyde/0.5% glutaraldehyde, dehydrated, embedded in LR WHITE resin (London Resin Company Ltd, Berkshire, UK), and labeled after embedding as described [Briquet et al.]. […]

[6] = system: HIV-1 B-HXB2 virions; test: Immunogold transmission electron microscopy; assay type: binding; conditions: 20 μg/ml, 37° C., 1 h; anti-hBD antibody and 10-nm gold IgG
Method: as §1, §6

B1: hBD-3: Recombinant human β-defensin 3 produced using an hBD-3-His tag fusion construct cloned into pET-30c; exemplary sequence SEQ ID NO:15 (protein, listed as Homo sapiens)
chain: MRIHYLLFALLFLFLVPVPGHGGIINTLQKYYCRVRGGRCAVLSCLPKEEQIGKCSTRGRKCCRRKK
modifications: not fully specified (C-terminus); ends and bridges not checked
With B1 the “anti-HIV-1 effect after pelleting and extensive washing of virions” value ([1]; 20 μg/ml in 10 mM PB 1 h, RT activity 48 h post-infection) was “maintained after washing”, the “effect of subsequent addition of hBD to the cell-virus mixture” value ([1]; additional 20 μg/ml during infection, enhancement only against the CXCR4-tropic strain) was “enhanced anti-HIV-1 activity” and the “anti-HIV-1 effect after pelleting and extensive washing of virions” value [2] was “maintained after washing”. For the same molecule, the “decrease of surface expression of CXCR4 (±SD)” value [3] was 52%±20%, the “effect on CCR5 expression” value [4] was “not altered” and the “gold particles bound to MT4 cellular membrane” value [5] was “bound both to virions and to the MT4 cellular membrane”. For the same molecule, the “gold particles bound to virions” value [6] was “bound both to virions and to the MT4 cellular membrane”.
